Results reported in patent US20210253716A1.
One block for each substance: values may come before it.

Tests used:
[1] = target: full length wild type human ACVR1 on HEK293/BRE-luc/hACVR1-wild type cells (human) (UniProt Q04771); test: flow cytometry, secondary antibody alone (66.6 nM run), HEK293/hACVR1-wt cells
[2] = target: full length human ACVR1 (R206H) on HEK293/BRE-luc/hACVR1-R206H-clone H2 cells (human) (UniProt Q04771); test: flow cytometry, secondary antibody alone (70 nM run), HEK293/hACVR1-R206H cells
Chain of full length human ACVR1 (R206H) on HEK293/BRE-luc/hACVR1-R206H-clone H2 cells (human) (Q04771 21-509 R206H): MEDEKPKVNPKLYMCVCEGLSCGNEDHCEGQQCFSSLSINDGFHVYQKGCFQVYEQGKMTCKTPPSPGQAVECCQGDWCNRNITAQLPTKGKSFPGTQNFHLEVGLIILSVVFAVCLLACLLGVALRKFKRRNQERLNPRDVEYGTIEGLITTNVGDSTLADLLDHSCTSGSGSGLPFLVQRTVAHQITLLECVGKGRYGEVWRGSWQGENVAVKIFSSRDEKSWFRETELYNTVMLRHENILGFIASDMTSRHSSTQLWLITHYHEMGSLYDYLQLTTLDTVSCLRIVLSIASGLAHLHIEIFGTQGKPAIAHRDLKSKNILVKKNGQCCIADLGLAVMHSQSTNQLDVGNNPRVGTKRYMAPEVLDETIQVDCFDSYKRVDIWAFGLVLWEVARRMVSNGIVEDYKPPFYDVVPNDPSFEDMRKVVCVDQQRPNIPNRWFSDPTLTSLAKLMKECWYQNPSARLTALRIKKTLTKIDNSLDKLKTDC

[3] = target: full length human ACVR1 (R206H) on HEK293/BRE-luc/hACVR1-R206H-clone H2 cells (human) (UniProt Q04771); test: flow cytometry, secondary antibody alone (66.6 nM run), HEK293/hACVR1-R206H cells
[4] = target: human ACVR1 extracellular domain expressed with a C-terminal mouse IgG2a Fc tag (human); test: SPR (Biacore), mAb captured, 37 C
Chain of human ACVR1 extracellular domain expressed with a C-terminal mouse IgG2a Fc tag (human) (chain, as listed by the source limits assumed): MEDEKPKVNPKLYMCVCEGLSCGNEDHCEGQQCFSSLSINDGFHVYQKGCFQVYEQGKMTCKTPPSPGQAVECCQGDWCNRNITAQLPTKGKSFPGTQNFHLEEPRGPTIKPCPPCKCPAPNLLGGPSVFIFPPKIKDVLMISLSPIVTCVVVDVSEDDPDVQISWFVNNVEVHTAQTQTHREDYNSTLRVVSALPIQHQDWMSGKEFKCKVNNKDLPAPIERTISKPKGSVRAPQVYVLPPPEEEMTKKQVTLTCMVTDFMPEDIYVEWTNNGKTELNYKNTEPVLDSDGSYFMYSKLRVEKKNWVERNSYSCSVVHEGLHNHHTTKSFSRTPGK

[5] = target: human ACVR1 extracellular domain expressed with a C-terminal myc-myc-hexahistidine tag (human); test: SPR (Biacore), mAb captured, 37 C
Chain of human ACVR1 extracellular domain expressed with a C-terminal myc-myc-hexahistidine tag (human) (chain, as listed by the source limits assumed): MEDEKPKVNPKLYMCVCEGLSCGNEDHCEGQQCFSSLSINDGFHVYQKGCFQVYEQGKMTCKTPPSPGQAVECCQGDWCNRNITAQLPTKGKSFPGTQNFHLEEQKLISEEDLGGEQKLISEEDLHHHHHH

[6] = target: mouse ACVR1 extracellular domain expressed with a C-terminal myc-myc-hexahistidine tag (mouse); test: SPR (Biacore), mAb captured, 37 C
Chain of mouse ACVR1 extracellular domain expressed with a C-terminal myc-myc-hexahistidine tag (mouse) (chain, as listed by the source limits assumed): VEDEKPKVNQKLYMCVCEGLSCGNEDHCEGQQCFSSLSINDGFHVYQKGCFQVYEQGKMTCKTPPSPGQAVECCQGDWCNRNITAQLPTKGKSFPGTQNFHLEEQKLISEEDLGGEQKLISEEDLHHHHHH

[7] = target: human ACVR1 extracellular domain expressed with a C-terminal mouse IgG2a Fc tag (human); test: SPR (Biacore), mAb captured, 25 C
[8] = target: human ACVR1 extracellular domain expressed with a C-terminal myc-myc-hexahistidine tag (human); test: SPR (Biacore), mAb captured, 25 C
[9] = target: mouse ACVR1 extracellular domain expressed with a C-terminal myc-myc-hexahistidine tag (mouse); test: SPR (Biacore), mAb captured, 25 C
[10] = target: full length wild type human ACVR1 on HEK293/BRE-luc/hACVR1-wild type cells (human) (UniProt Q04771); test: flow cytometry, 66.6 nM antibody, HEK293/hACVR1-wt cells
[11] = target: full length human ACVR1 (R206H) on HEK293/BRE-luc/hACVR1-R206H-clone H2 cells (human) (UniProt Q04771); test: flow cytometry, 70 nM antibody, HEK293/hACVR1-R206H cells
[12] = target: full length human ACVR1 (R206H) on HEK293/BRE-luc/hACVR1-R206H-clone H2 cells (human) (UniProt Q04771); test: flow cytometry, 66.6 nM antibody, HEK293/hACVR1-R206H cells
[13] = target: full length human ACVR1 (R206H) on HEK293/BRE-luc/hACVR1-R206H-clone H2 cells (human) (UniProt Q04771); test: cell-based or functional assay

Chain of full length wild type human ACVR1 on HEK293/BRE-luc/hACVR1-wild type cells (human) (Q04771 21-509): as the sequence (Q04771 21-509 R206H) above, with H186R counted along it

MFI - Normalized to Unstained Control [1]: 1 fold
MFI - Normalized to Unstained Control [2]: 1 fold
MFI - Normalized to Unstained Control [3]: 1 fold
Substance: Alexa Fluor-647 conjugated secondary antibody (Jackson ImmunoResearch, anti-human #109-607-003), alone

100 nM Ag Bound (RU) [4]: -1 RU
900 nM or 100 nM Ag Bound (RU) [5]: 0 RU
900 nM or 100 nM Ag Bound (RU) [6]: 0 RU
100 nM Ag Bound (RU) [7]: -2 RU
900 nM or 100 nM Ag Bound (RU) [8]: 1 RU
900 nM or 100 nM Ag Bound (RU) [9]: -2 RU
MFI - Normalized to Unstained Control [10]: 3 fold
MFI - Normalized to Unstained Control [11]: 3 fold
MFI - Normalized to Unstained Control [12]: 1 fold
Substance: hIgG4 isotype control antibody (REGN1945)

EC50 [M], BRE-luc reporter activation by ligand [13]: 3.33e-10 M
Substance: human Activin A (R&D System 338-AC) (from UniProt P08476 311-426) (ligand)

EC50 [M], BRE-luc reporter activation by ligand (run with 2 nM hBMP7) [13]: 1.22e-09 M
EC50 [M], BRE-luc reporter activation by ligand (run with 3 nM hBMP7) [13]: 2.97e-10 M
Substance: human Bone Morphogenetic Protein 7 (R&D System 354-BP/C) (from UniProt P18075 293-431) (ligand)
